Assay results from the RNAGym collection of RNA variant scans (doi:10.1021/acssynbio.7b00057).

B1: Pistol ribozyme (parent)
chain: GGGUCGUUGUUCCAUAAUCGCGUGGAUAUGGCACGCAAGUUUCUACCGGGCACCGUAAAUGUCCGACUGGAGCCGUUCGGGCGGCUAUAAACAGACCUCAGGCCCGAAGCGUGGCGGCACCUGCCGCCGGUGGUAAAAAAGAUCGGAAGAGCACACGUCU

Variants of: B1
Experiment: aptazyme ON/OFF ratio, guanine; higher = stronger switching; co-transcriptional cleavage with and without guanine

Point of comparison: U7A U8G U10C U11G C12U, “aptazyme ON/OFF ratio” value 1.29. Against it:
- U7A U8G U10G U11A — higher, 2.88
- U7A U8G U10G U11G — higher, 1.44
- U7A U8G U10G U11C — higher, 1.39
- U7A U8G U10C C12U C13A — higher, 1.55
- U7A U8G U10C C12U C13G — higher, 1.4
- U7A U8G U10C C12U C13U — higher, 1.51
- U7A U8G U10A C12G C13A — lower, 1.24
- U7A U8G U10A C12G C13G — lower, 1.26
- U7A U8G U10A C12G C13U — lower, 1.21
- U7A U8G U10C C12G — lower, 1.12
- U7A U8G U10C C12U — higher, 1.5
- U7A U8G U10C C12A — higher, 1.33
- U7A U8G G9U U10G U11C C13A — lower, 1.12
- U7A U8G G9U U10G U11C C13U — lower, 1.05
- U7A U8G G9U U10G U11C C13G — lower, 1.07
- U7A U8G U10C U11A C12A C13U — higher, 1.37
- U7A U8G U10C U11A C12A C13A — lower, 1.27
- U7A U8G U10C U11A C12A C13G — higher, 1.53
- U7A U8G U10G C12U C13U — lower, 1.26
- U7A U8G U10G C12U C13G — lower, 1.28
- U7A U8G U10G C12U C13A — lower, 1.11
- U7A U8G U10G U11C C12A C13U — higher, 1.51
- U7A U8G U10G U11C C12A C13A — higher, 1.39
- U7A U8G U10G U11C C12A C13G — lower, 1.11
- U7A U8G G9U U10G U11G C12A C13U — lower, 1.21
- U7A U8G G9U U10G U11G C12A C13A — lower, 1.12
- U7A U8G G9U U10G U11G C12A C13G — lower, 1.13
- U7A U8G U10G U11C C12G — lower, 1.14
- U7A U8G U10G U11C C12U — higher, 1.53
- U7A U8G U10G U11C C12A — lower, 1.21
- U7A U8G U10A C12A C13U — higher, 1.48
- U7A U8G U10A C12A C13A — lower, 1.17
- U7A U8G U10A C12A C13G — lower, 1.23
- U7A U8G U10A U11C C12A — higher, 1.49
- U7A U8G U10A U11C C12G — lower, 1.15
- U7A U8G U10A U11C C12U — the same, 1.29
- U7A U8G U10G U11C C12U C13G — lower, 1.11
- U7A U8G U10G U11C C12U C13A — lower, 0.988
- U7A U8G U10G U11C C12U C13U — higher, 1.41
- U7A U8G U10C U11C C12A — higher, 1.62
- U7A U8G U10C U11C C12U — higher, 1.53
- U7A U8G U10C U11C C12G — higher, 1.42
- U7A U8G U10G U11G C12A — lower, 1.24
- U7A U8G U10G U11G C12U — higher, 1.42
- U7A U8G U10G U11G C12G — higher, 1.31
- U7A U8G G9U U10G U11A C12G C13A — lower, 1.13
- U7A U8G G9U U10G U11A C12G C13G — higher, 1.38
- U7A U8G G9U U10G U11A C12G C13U — lower, 1.02
- U7A U8G G9U U11G C12G C13G — lower, 1.19
- U7A U8G G9U U11G C12G C13U — lower, 1.22
- U7A U8G G9U U11G C12G C13A — lower, 1.22
- U7A U8G U10A C13A — lower, 1.09
- U7A U8G U10A C13U — lower, 1.12
- U7A U8G U10A C13G — lower, 1.26
- U7A U8G U10A U11G C12G C13G — higher, 1.43
- U7A U8G U10A U11G C12G C13U — higher, 1.46
- U7A U8G U10A U11G C12G C13A — lower, 1.16
- U7A U8G G9U U10G U11A C13A — lower, 1.17
- U7A U8G G9U U10G U11A C13U — lower, 1.14
- U7A U8G G9U U10G U11A C13G — lower, 1.25
- U7A U8G U10A U11G C13A — the same, 1.29
- U7A U8G U10A U11G C13G — lower, 1.23
- U7A U8G U10A U11G C13U — the same, 1.29
- U7A U8G U10C U11G C12G C13A — lower, 1.19
- U7A U8G U10C U11G C12G C13U — higher, 1.41
- U7A U8G U10C U11G C12G C13G — higher, 1.35
- U7A U8G G9U U10G U11A C12U C13U — higher, 1.42
- U7A U8G G9U U10G U11A C12U C13G — lower, 1.18
- U7A U8G G9U U10G U11A C12U C13A — higher, 1.64
- U7A U8G U11C C12A C13U — lower, 1.19
- U7A U8G U11C C12A C13A — lower, 1.17
- U7A U8G U11C C12A C13G — lower, 1.12
- U7A U8G U10C C12A C13G — lower, 1.25
- U7A U8G U10C C12A C13U — higher, 1.51
- U7A U8G U10C C12A C13A — higher, 1.41
- U7A U8G U10C U11G C13A — lower, 1.23
- U7A U8G U10C U11G C13U — higher, 1.53
- U7A U8G U10C U11G C13G — lower, 1.07
- U7A U8G U11C C12G — lower, 1.05
- U7A U8G U11C C12A — lower, 1.24
- U7A U8G U11A C12G C13A — lower, 1.11
- U7A U8G U11A C12G C13U — lower, 1.24
- U7A U8G U11A C12G C13G — lower, 1.07
- U7A U8G U10A U11A C12A C13U — lower, 1.12
- U7A U8G U10A U11A C12A C13A — higher, 1.34
- U7A U8G U10A U11A C12A C13G — higher, 1.38
- U7A U8G G9U U11G C12A C13U — lower, 1.2
- U7A U8G G9U U11G C12A C13G — lower, 1.27
- U7A U8G G9U U11G C12A C13A — lower, 1.26
- U7A U8G U10G U11A C12U — higher, 1.33
- U7A U8G U10G U11A C12G — higher, 1.59
- U7A U8G U10G U11A C12A — lower, 1.09
- U7A U8G G9U U10G U11G C12A — higher, 1.38
- U7A U8G G9U U10G U11G C12G — higher, 1.35
- U7A U8G G9U U10G U11G C12U — higher, 1.36
- U7A U8G U10G C12G C13A — lower, 1.26
- U7A U8G U10G C12G C13U — lower, 1.21
- U7A U8G U10G C12G C13G — higher, 1.3
- U7A U8G G9U U11G C12U C13G — the same, 1.29
- U7A U8G G9U U11G C12U C13U — the same, 1.29
- U7A U8G G9U U11G C12U C13A — lower, 1.18
- U7A U8G U10C U11G C12G — higher, 1.33
- U7A U8G U10C U11G C12A — higher, 1.43
- U7A U8G G9U U11A C12U C13U — lower, 1.07
- U7A U8G G9U U11A C12U C13A — higher, 1.43
- U7A U8G G9U U11A C12U C13G — lower, 1.26
- U7A U8G U10C U11A C12G C13U — higher, 1.31
- U7A U8G U10C U11A C12G C13G — lower, 1.28
- U7A U8G U10C U11A C12G C13A — lower, 1.22
- U7A U8G G9U U11C C12A C13G — lower, 1.12
- U7A U8G G9U U11C C12A C13A — higher, 1.68
- U7A U8G G9U U11C C12A C13U — lower, 1.11
- U7A U8G G9U U11A C13A — higher, 1.38
- U7A U8G G9U U11A C13U — higher, 1.44
- U7A U8G G9U U11A C13G — lower, 1.25
- U7A U8G U10A U11A C12U — higher, 1.38
- U7A U8G U10A U11A C12G — lower, 1.13
- U7A U8G U10A U11A C12A — higher, 1.47
- U7A U8G U10G U11G C12U C13A — higher, 1.31
- U7A U8G U10G U11G C12U C13G — higher, 1.33
- U7A U8G U10G U11G C12U C13U — higher, 1.38
- U7A U8G U10C U11C C12G C13A — lower, 1.07
- U7A U8G U10C U11C C12G C13U — lower, 1.19
- U7A U8G U10C U11C C12G C13G — lower, 1.26
- U7A U8G G9U U10G C12G C13U — higher, 1.3
- U7A U8G G9U U10G C12G C13G — lower, 1.11
- U7A U8G G9U U10G C12G C13A — higher, 1.37
- U7A U8G U10C U11G C12U C13U — higher, 1.31
- U7A U8G U10C U11G C12U C13A — lower, 1.26
- U7A U8G U10C U11G C12U C13G — higher, 1.44
- U7A U8G G9U U10G U11C C12A C13U — lower, 1.16
- U7A U8G G9U U10G U11C C12A C13G — lower, 1.13
- U7A U8G G9U U10G U11C C12A C13A — lower, 1.14
- U7A U8G G9U U10G — higher, 1.47
- U7A U8G U10A U11C C13G — lower, 1.25
- U7A U8G U10A U11C C13U — lower, 1.05
- U7A U8G U10A U11C C13A — lower, 1.18
- U7A U8G U11A C12G — lower, 1.2
- U7A U8G U11A C12A — higher, 1.43
- U7A U8G U11A C12U — lower, 1.23
- U7A U8G U10G C13U — higher, 1.55
- U7A U8G U10G C13G — lower, 1.14
- U7A U8G U10G C13A — lower, 1.26
- U7A U8G G9U U10G U11G C12U C13A — higher, 1.38
- U7A U8G G9U U10G U11G C12U C13U — lower, 1.21
- U7A U8G G9U U10G U11G C12U C13G — higher, 1.3
- U7A U8G U10C U11A C12U — lower, 1.27
- U7A U8G U10C U11A C12A — higher, 1.5
- U7A U8G U10C U11A C12G — higher, 1.48
- U7A U8G G9U U10G U11A C12A C13G — higher, 1.39
- U7A U8G G9U U10G U11A C12A C13A — lower, 1.16
- U7A U8G G9U U10G U11A C12A C13U — higher, 1.48
- U7A U8G U11A C12U C13A — higher, 1.5
- U7A U8G U11A C12U C13U — lower, 1.18
- U7A U8G U11A C12U C13G — higher, 1.35
- U7A U8G G9U U10G U11C C12U C13G — higher, 1.47
- U7A U8G G9U U10G U11C C12U C13A — lower, 1.1
- U7A U8G G9U U10G U11C C12U C13U — lower, 1.05
- U7A U8G U10A C12G — lower, 1.22
- U7A U8G U10A C12U — lower, 1.17
- U7A U8G U10A C12A — lower, 1.23
- U7A U8G U10A U11G C12U — lower, 1.12
- U7A U8G U10A U11G C12A — higher, 1.43
- U7A U8G U10A U11G C12G — higher, 1.32
- U7A U8G U10G U11C C13A — lower, 1.11
- U7A U8G U10G U11C C13U — higher, 1.3
